The DeepSol protein solubility set

Assay: soluble on expression in E. coli; label from the status in PepcDB or PDB records

| Sequence | soluble on expression in E. coli |
| --- | --- |
| MLFFSSAMSKHKLTFTKLSDCMKYLDLAATWAEEEWGYIRNKGLEFRKKILSDLKEHTYIGTFNGQPIAMFVLFDKEMSPEFNHGRFKPPVVNELMYVYIDKPYRGLGFGKQIIDEAKQLASDSKSEYIMLDTLKPGLNRFYEKSGAKVIAENQLFSHPTDVLTIKI | not soluble |
| GSNRSLIVTTILEEPYVLFKKSDKPLYGNDRFEGYCIDLLRELSTILGFTYEIRLVEDGKYGAQDDVNGQWNGMVRELIDHKADLAVAPLAITCVREKVIDFSKPFMTLGISILYRKGTPIDSADDLAKQTKIEYGAVEDGATMTFFKKSKISTYDKMWAFMSSRRQSVLVKSNEEGIQRVLTSDYAFLMESTTIEFVTQRNCNLTQIGGLIDSKGYGVGTPMGSPYRDKITIAICQLQEEGKLHMMKEKWWRGNGCPS | soluble |
| MSLNPSKKKNNFNMQDPFAWQKINKQIRDANASQLDVLAKEFDTQETLPIYAYILERKNNFKKHYFIMPYYDNIKDYNKTRQALILAIARQESRFIPTAISVSYALGMMQFMPFLANHIGEKELKIPNFDQDFMFKPEIAYYFGNYHLNYLESRLKSPLFVAYAYNGGIGFTNRMLARNDMFKTGKFEPFLSMELVPYQESRIYGKKVLANYIVYRHLLNDSIKISDIFENLIQNKANDLNKEGHHHHHH | not soluble |
| MGSDKIHHHHHHMYYEKAVQKTINWIESHLHEQISNEDIVNVSSFSKFHFHRIFQKEVGMSVASYIRLRRLANAAAALLYTDHRIIDIALYYQFESQEAFTRTFKKMYHMPPGAYRTFMKRFTSKKEESYMEKKMKGWVLSGSHPFQFEMGIDRENVHQGKASGYLKSTMVQDIGEFATMMQQFKADRYLGKRLRLSSFIKTKGVQHFASLWMRVDSAADDVLQFDNMSNRPITGTTNWNHYAIVLDVPENSAVISFGVQLSGPGQVWMDHVVFEEVDESVPSTNLEMPGELLDEPVNLSFEEELQK | not soluble |
| MGSDKIHHHHHHMNHYVEGKLLIIGGAEDKKGECKILKRFIQEAGGRESRVVVLTAATEMPEQVGSEYKELFENLGAAEVQVLDIAERVSANRESISQELQKATGIFFTGGDQLRITGILGGTRLGRTLHNLYQRGVIIAGTSAGASVMSDTMIVGGEAGTPKKDTLTMAPGLGLLHSVVVDQHFAQRGRIGRLLTAIAQNPYVLGVGIDEDTSILVYSDGHFTVVGSQTVTVVDASPTMASNVSEISPGQALVLTPVLMHILSDGYRFDLKRRAASLNETPSGG | not soluble |
| MDDHAFAAPAPAAPTAPALPMAVLAELTHRCPLQCPYCSNPVELEAASRELSTEDWQRVIGELAALGVLQIHFSGGEPLVRRDLVALVAHADRAGLYTNLITSAVMFTRAKVAELAEAGLAHVQVSLQGASAPVAERIGGFRGGHAKKIEAAAWVRAEGMALTLNAVMHRQNLDELPRIVEMAVEMGAQRLEVAHVQYYGWALKNRAALMPTLAQLDEATRIVEEAQARLSGVLAIDYVIPDYYAVRPKTCMGGWGRQFFNISPSGKVLPCHAAETITGLRFDSVREAPLAEIWQRSEALNLYRGTGWMQEPCRSCIHAEEDFGGCRCQAFALAGDAAATDPACAKSPLHAQLFSLAGAEAEAGADRFLYRNFSGGTPEG | not soluble |
| MRRKMIMKIIQITDTHLLPPGIAINGVDPENQLRAAVADIVEKHADADLLVMTGDLCNYGEPEAYELLRDILAPVSIPTRLMLGNHDRRPEFVAAFPEQPRDDNGYIQSFIDTEFGRLLFLDSHEADVIGGIYGADRLTWLENALESAGDLPITVFVHHPPMDCGIRHFEHIGMHDDGAIMRRLAAHPAGIRHIVFGHIHVPMAGTTAEGIAYSSGQACAHRFITDIDVVDPLWTGGNPCYRVISLGAFGLRAYDAEVGQPVLGQTPVCEGP | not soluble |
| MCPILWTRNGSHCYYFSMEKKDWNSSLKFCADKGSHLLTFPDNQGVKLFGEYLGQDFYWIGLRNIDGWRWEGGPALSLRILTNSLIQRCGAIHRNGLQASSCEVALQWICKKVLY | soluble |
| MGSSHHHHHHSSGRENLYFQGHMQWETVIGLEIHAQLATQSKIFSGSSTAFGAAPNTQASLVDLAMPGTLPVLNEEAVRMACLFGLAIDARIDRQNVFARKNYFYPDLPKGYQTSQMDHPIVGKGHLDITLEDGTTKRIGITRAHLEEDAGKSLHEDFQGMSGIDLNRAGTPLLEIVSEPDIRSAKEAVAYVKAIHALVRYLGICDGNMAEGSLRCDCNVSVRPKGQAEFGTRAEIKNVNSFRFIEKAINHEIQRQIELIEDGGKVVQETRLYDPNKDETRSMRGKEEANDYRYFPCPDLLPVVIEPEYLAKLREQLPELPVQKRERFESQYGLSAYDASVLSASREMADYFEKVQGICGDAKLAANWVMVELGSLLNKDGLEIEQSPVSAEQLGGMILRIKDNTISGKLAKMVFEAMANGEGSADQIIEAKGLKQVTDSGAIEKMLDEVLAANAEQVEQYRAADEAKRGKMFGFFVGQAMKASKGKANPQQVNELLKKKLEA | soluble |
| ASNIYRLQQAAEAAVKTGRKIAVFGRSMEKAIVNGIELGYIKVPKGTFIEPSELKNLHASEVLIMCTGSQGESMAALARIANGTHRQVTLQPGDTVIFSSSPIPGNTTSVNKLINTIQEAGVDVIHGKVNNIHTSGHGGQQEQKLMLSLIKPKYFMPVHGEYRMQKVHAGLAMDIGIPKENIFIMENGDVLALTSDSARIAGHFNAQDIYVDGNGIGDIGAAVLRDRRDLSEDGVVLAVATVDFNTQMILAGPDILSRGFIYMRESGDLIRESQRVLFNAIRIALKNKDASIQSVNGAIVNALRPFLYEKTEREPIIIPMVL | not soluble |
| MSLAVEIACLDLEGVLVPEIWIAFAEKTGIESLRATTRDIPDYDVLMKQRLRILDEHGLKLADIQAVISTLKPLEGAVEFVDWLRERFQVVILSDTFYEFSQPLMRQLGFPTLLCHRLITDETDRVVSYQLRQKDPKRQSVLAFKSLYYRIIAAGDSYNDTTMLGEADAGILFHAPDNVIREFPQFPAVHTFDELKKEFIKASNRELVLEGHHHHHH | soluble |
| MSLEDVIEKLRELNEPVPVPLELPEEELLVEIEEELLIGIPAEFREFLLLVSDVVYGRLEPVTVTDPHSHTYLPEVAATAWDLGVPRELIPLCEDDGSYYCVAEDGEVVLWADGDLTDESWDSVWVWARDVWLESEGHHHHHH | soluble |
| DLTGKSIVGYRISGGLDIPIGYGLYVNPSLAFHSKGMKTNLEGVALGALGLNSSLKVKTHYIEIPVHLGYRLSLLNLVSVAVQAGPYFSYAIKGDGTVVRKDGQETTFDIYKDGLKEMINAKRFDVGLGAAAMVGYSNFYLLIGADFGLINTVKDIKPETKNLEATLKNTSFHVGLGIRL | not soluble |
| GSPGISGGGGGIPSGRGELLVSLCYQSTTNTLTVVVLKARHLPKSDVSGLSDPYVKVNLYHAKKRISKKKTHVKKCTPNAVFNELFVFDIPCESLEEISVEFLVLDSERGSRNEVIGRLVLGATAEGSGGGHWKEICDFPRRQIAKWHMLCDG | soluble |
| MTITPNKLTLKIGRAEGRPGDTVEIPVNLYGVPQKGIASGDFVVSYDPNVLEIIEIEPGELIVDPNPTKSFDTAVYPDRKMIVFLFAEDSGTGAYAITEDGVFATIVAKVKEGAPEGFSAIEISEFGAFADNDLVEVETDLINGGVLVTNKPVIEGYKVSGYILPDFSFDATVAPLVKAGFKVEIVGTELYAVTDANGYFEITGVPANASGYTLKISRATYLDRVIANVVVTGDTSVSTSQAPIMMWVGDIVKDNSINLLDVAEVIRCFNATKGSANYVEELDINRNGAINMQDIMIVHKHFGATSSDYDAQLEHHHHHHMRGSHHHHHHTDLRADKASSIELKFDRNKGEVGDILIGTVRINNIKNFAGFQVNIVYDPKVLMAVDPETGKEFTSSTFPPGRTVLKNNAYGPIQIADNDPEKGILNFALAYSYIAGYKETGVAEESGIIAKIGFKILQKKSTAVKFQDTLSMPGAISGTQLFDWDGEVITGYEVIQPDVLSLGDEPF | soluble |
| MSSPARQYRGRSSEQRAAERRARLLEAGLQVFGTVGGEKATMTAICAEAKLTERYFYESFRDRDDLLVQVIEGIAAEIAEAARVTLQTVTGDPEVRARAAIATFVDILTADPRKGRVSIIESAAAEPLRTRRRELLRAFALLVAEESKELYGDRAWSSPQDEITALLFVGGLAELMTAWLNGEIEVSPEQIVDAATYQFTSTAHR | not soluble |
| MEQFINPRVKDIQISGIRQFSNMIQNYDNLISLTIGQSDFPTPSLVKEAAKRAITENYTSYTHNAGLLELRKAACNFVKDNYDLHYSPETETIVTIGASEAIDVAFRTILEPGTEVILPAPIYPGYEPIIRLCGATPIFIDVRETGFRLTAEALENAITEKTRCVVLPYPSNPTGVTLSKKELQDIADVLKDKNIFVLSDEIYSELVYEQTHTSIAHFPEMREKTIVINGLSKSHSMTGWRIGLLFAPSYLAGHILKVHQYNVTCATSIAQYAAIEALTAAKDAPKMMRHQYKKRRDYVYNRLIQMGLTVEKPTGAFYLFPYVGHLTSSSFDFALDLVKEAGLAVVPGTAFSEYGEGYLRLSYAYSIETLKEGCDRLEAFLQQKAKS | not soluble |
| MAHHHHHHMPARGCAPVDEQIAGTDTEGRRYRSVEEMWGRELQGNLYDAKTGWYGKSLQYWGSVPATVSGVLGGMDHVHDIDIRDSRAFICCLPERGTTRALDCGAGIGRITKSLLCHLYDVTDLLEPVASMLEKAKEELEGFPVGDFFQSSMETAKLQPKTYDLIVIQWAAIYLTDEDFVAFLVRCKEALTPKGYIFFKENCASDDEFIVDKEDSSLTRSDKHYKRIFAAAGIEVVKEAMQGDWPDDLLKVKMYALR | soluble |
| MGSDKIHHHHHHMTQYEVDIMYEVKLDAFNGPLDLLLHLIQKFEIDIYDIPMQALTEQYMQYVHAMKQLEINIASEYLVLASELLMIKSKMLLPQSTSDMDVDDDPREDLVGRLIEYQNYKEYTAILNDMKEERDFYFTKRPTDLSHLETDESWDPNHTIDLTELIVAYQRVKNRVELNTPKSVEIRKETFTIQQATEQVTSRLKDKDHFNFFSLFTFSEPIEQVVTHFLAILEMSKAGIINIEQQRNFEDINIIRGVNYHFG | not soluble |
| MPPYFSPKSEAPICGYCQLTFSQTGSMTRHRDRLHTKNHTCLICVSNCEGAPILGESIKKHLQHAHGYVDVQSCSCCHWIFENKIQLRTHLDAMKATGQPGDEVVLAKGTFAPGTLSQAAILQSKAYSANRQQKCQQSLKVDSGGFNDLSETQLKFILDNYSQIVGELESPNPKISGCRKRKCGMTIQHVLRDDDFKKIELC | not soluble |
| MKVRHPFKVVVVTGVPGVGKTTVIKELQGLAEKEGVKLHIVNFGSFMLDTAVKLGLVEDRDKIRTLPLRRQLELQREAAKRIVAEASKALGGDGVLIIDTHALVKTVAGYWPGLPKHVLDELKPDMIAVVEASPEEVAARQARDTTRYRVDIGGVEGVKRLMENARAASIASAIQYASTVAIVENREGEAAKAAEELLRLIKNL | soluble |
| MGSDKIHHHHHHVSIPANNSPVRLALIGAGRWGKNYIRTIAGLPGAALVRLASSNPDNLALVPPGCVIESDWRSVVSAPEVEAVIIATPPATHAEITLAAIASGKAVLVEKPLTLDLAEAEAVAAAAKATGVMVWVEHTQLFNPAWEALKADLTSIGPILAVRSEAGNHGPYRPGGVPMLWDWGAHDVSMVLDLMGRDPDSTSASWAARGEKDGGEAGDVTLTLAFSTVEAHIRLCNTMDKCRRLAVFGEAGTLVMDDRATDKLTLHPPQPDGNWPVGQGHALTVTDEMPLTRAVRLFAGAVRQPEPGPSPLELGLRVVRVLGACS | not soluble |
| MNKRNWTAYYNSTKQNTLPRKSLLKAIANFDKEKINLSKSAIDLGCGAGIDVMELLRCGWSVIAIDSQLSAIDSLLSSAQELTCANKLKTIISSFEALDSLPKVNLINASFSLPFLKPVYFYKFWSVILKGLKPGGRFSGSFFGFNDFWNTRTDMTFLNREMICHLFSQFKIEYFQEEEKDEMDALGYYKHWHKFFIVAKKIALEHHHHHH | not soluble |
